This note sets out measurements from patent US20230071019A1 (RESEARCH FOUNDATION FOR THE STATE UNIVERSITY OF NEW YORK, published 2023).

One test addresses T1, avidin (UniProt P02701 25-152).
T1 construct: Negative-control coat; also called avidin alone
The experiment in a line: phage ELISA on avidin coat without biotin-DM1. In general terms: In an ELISA, binding on a coated surface is turned into a signal by an enzyme label.

Test [1] addresses T2, ado-trastuzumab emtansine.
T2 construct: Antibody-drug conjugate immobilised on a CM5 SPR chip; also called TDM1; T-DM1
The experiment in a line: SPR, kinetic assessment, immobilized T-DM1. On the technique in general: Surface plasmon resonance follows binding to a sensor surface in real time, without labels.

Test [2] has as its target T2, ado-trastuzumab emtansine. The experiment in a line: SPR, kinetic fit (1:1 Langmuir), TDM1 on a CM5 chip, 3A2 injected at 1.25-10 nM. On the procedure: (§1) Preliminary screening of DM1/4 binders were performed using a neutravidin SPR chip with DM1-Biotin on the left channel. Phagemid purified sdAbs were flowed over the SPR chip for 2 minutes at a flow rate of 25 ul/min. After binding, sdAb was dissociated for 20 minutes. Observed sensorgrams were fit to an individual dissociation rate constant for each construct. Equilibrium and kinetic binding of 3A2 was assessed using a CM5 SPR chip with TDM1 immobilized on the left channel. […] Rate constants for 3A2-TDM1 association and dissociation were obtained through fitting of the observed sensorgrams for the 1.25, 2.5, 5, 7.5 and 10 nM injections to a 1:1 Langmuir binding model.
(§2) Anti-DM1/DM4 sdAb DF3A2 clone. […] DNA encoding for 3A2 was synthesized and expressed in the E. coli strain SHuffle and purified using nickel chromatography. Purified 3A2 was used to assess TDM1 binding using SPR. […] To obtain a secondary measure of binding kinetics sdAb injected at concentrations between 1.25-10 nM were fit to a 1:1 Langmuir binding model to obtain association and dissociation rate constants.

Test [3] deals with T2, ado-trastuzumab emtansine. The experiment in a line: SPR, equilibrium binding, TDM1 on a CM5 chip, 3A2 injected at 1.25-400 nM. On the procedure: as §1, §2
Another test has as its target T3, cetuximab.
T3 construct: not shown: the constant regions
The experiment in a line: ELISA, purified CG4 on unconjugated cetuximab coat, anti-His HRP detection. On the procedure:
(§3) Nunc Maxisorp 96-well plates were coated with 4 μg/ml Cetuximab or Cetuximab-calicheamicin, or 5 μg/ml Avidin. Plates were washed three times with PBST and three times with dH2O, and blocked with MPBS for 2 h at RT. For the Avidin coated plates, plates were washed three times with PBST and incubated with 1 μM Biotin-Calicheamcin. […] Plates were then washed three times with PBST, where bound sdAb was detected using an anti-His tag HRP-conjugated Ab diluted 1:1000 in MPBST. Following incubated and five washed with PBST, 100 μL of 1-Step Turbo TMB-ELISA solution was added to each well and incubated for 30 minutes. The reaction was quenched by adding 100 μL of Stop solution to each well and absorbance was measured at 450 nm. Alternatively, wells can also be incubated with 1:1000 diluted anti-His tag AP-conjugated Ab, instead of HRP conjugated Ab.

The target in test [4] is T4, Cetuximab-calicheamicin conjugate.
T4 construct: also called Cetuximab-calicheamcin conjugate; ADC (coated ELISA)
The experiment in a line: competitive ELISA on cetuximab-calicheamicin coated plates, 64 µM CG4 with or without 10 µM free calicheamicin. On the procedure: as §3

For test [5] the target is unchanged. The experiment in a line: competitive ELISA on cetuximab-calicheamicin coated plates, corrected for background. On the procedure:
as §3

The target of the next test is T5, exatecan conjugated BSA (bovine, UniProt P02769 25-607, exatecan conjugated to BSA; chemistry and sites not stated).
T5 construct: Hapten-carrier conjugate immobilised on the SPR chip; also called BSA conjugated Exatecan
T5 sequence (P02769 25-607 limits assumed): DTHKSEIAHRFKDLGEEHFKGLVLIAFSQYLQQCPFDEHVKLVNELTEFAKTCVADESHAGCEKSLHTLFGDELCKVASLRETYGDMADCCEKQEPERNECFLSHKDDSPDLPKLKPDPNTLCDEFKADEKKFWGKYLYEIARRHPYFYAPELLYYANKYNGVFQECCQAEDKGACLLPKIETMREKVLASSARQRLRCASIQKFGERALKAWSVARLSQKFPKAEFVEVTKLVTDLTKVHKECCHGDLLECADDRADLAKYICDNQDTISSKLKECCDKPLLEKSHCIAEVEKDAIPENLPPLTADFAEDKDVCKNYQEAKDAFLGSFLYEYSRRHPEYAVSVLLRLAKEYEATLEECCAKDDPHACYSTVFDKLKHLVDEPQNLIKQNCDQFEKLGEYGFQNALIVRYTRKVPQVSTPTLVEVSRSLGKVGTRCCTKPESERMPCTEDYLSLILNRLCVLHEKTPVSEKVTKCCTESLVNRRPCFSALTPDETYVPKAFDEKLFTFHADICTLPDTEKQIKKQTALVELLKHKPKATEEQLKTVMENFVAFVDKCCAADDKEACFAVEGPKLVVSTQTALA
The experiment in a line: SPR, kinetic fit, BSA-conjugated exatecan on the chip.

T1 sequence (P02701 25-152 limits assumed): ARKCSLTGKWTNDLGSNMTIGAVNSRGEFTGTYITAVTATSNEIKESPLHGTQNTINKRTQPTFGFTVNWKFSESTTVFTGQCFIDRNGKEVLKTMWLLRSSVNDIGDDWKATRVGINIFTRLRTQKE

B1: T3H3 (VHH)
VHH: EVQLVESGGGLVQPGGSLRLSCAASGRTFSHDHMGWFRQAPGKEREFVAAISWTSSTYYGDSVKGRFTISRSNAKNTVYLQMNSLKPEDTAIYYCSWGVGYWGQGTQVTVSS
notes: tested as phage media; also called DT3H3
In the case of B1, in the test with avidin, the binding result was “no binding”.

B2: Anti-DM1/DM4 sdAb DF4B12 clone (VHH)
VHH: EVQLVESGGGLVQPGGSLRLSCAASGSIFGISYMGWYRQAPGKQREPVALITSGGDTAYGDSVKGRFTISRDNAKNTVYLQMNSLTPEDTSTFYCAAGFYRSDSPNRYDYWGQGTQVTVSS
notes: Purified sdAb; tag not described
Take B2: the Kd in test [1] is 4.33 nM. Also, in the test with avidin, the binding result was “no binding”.

B3: Anti-DM1/DM4 sdAb DF3A4 clone (VHH)
VHH: QVQLQESGGGLVQPGGSLRLSCAASGSIFGISYMGWYRQAPGKQREPVALITSGGSTYYADSVKGRVTISRDNAKKTVYLQMNSLRPEDTSTYYCAAGFYRSDSPNRYDYWGQGTQVTVSS
notes: as for B2
In turn, B3 had a Kd in test [1] of 5.59 nM. Moreover, the binding result with avidin is “no binding”.

B4: Anti-DM1/DM4 sdAb DF3A2 clone (VHH)
VHH: QVQLQESGGGLVQPGGSLRLSCAASGGIFGISYMGWYRQAPGKQREPVALITSGGDTAYGDSVKGRFAISRDNAKNTVYLQMNSLKPDDTSAYYCAAGFYRSDSPNRYDYWGQGTQVTVSS
notes: also called sdAb 3A2
As for B4, the Kd in test [2] is 12.3 nM; in test [3], 25 nM. Also, in the test with avidin, the binding result was “no binding”.

B5: T3B3 (VHH)
VHH: EVQLVESGGGLVQAGGSLRLSCALSGGTLRSYTMGWIRQAPGKEREFVAGNRWSGGRTYYADSVKGRFTISGDNAENTVYLQMNSLKPEDTAVYYCTADVTEYGEDSSAYWGRGTQVTVSS
notes: tested as phage media; also called DT3B3
Turning to B5, in the test with avidin, the binding result was “no binding”.

B6: T3B5 (VHH)
VHH: QVQLVQSGGGLVQPGGSLRLSCTASGRTFSRYTMGWFRQAPGKEREFVAAISTGGLRQYFGDSVRGRCTISRDNAKSTVYLQMDSLKPEDTAVYYCAANWGTSYYWGQGTQVTVSS
notes: tested as phage media; also called DT3B5
As for B6, the binding result with avidin was “no binding”.

B7: T3B4 (VHH)
VHH: QVQLQESGGGLVQAGDSLRLSCTASGRTFSRYTMGWFRQAPGKEREFVAAISTGGLRQYFGDSVRGRCTISRDNAKNTVYLQMDSLKPEDTAVYYCAATGNEYHWGRGTQVTVSS
notes: tested as phage media; also called DT3B4
Turning to B7, the binding result in the test with avidin is “no binding”.

B8: Anti-Calicheamicin sdAb CG4 clone (VHH)
VHH: QVQLQESGGGLVQAGGSLRLSCAASGRTISGYAMGWFRQAPGKERDLVAAISRSGTSTYYADSVKGRFTISRDNAKNTVYLQMNSLKPEDTAVYYCNAPGGIWGQGTQVTVSS
For B8, the binding result with cetuximab is recorded as “binds”. Also, the “fold decrease of ELISA signal on addition of 10 µM free calicheamicin” value in test [4] is 2.5 fold. Besides, the “fold decrease of ELISA signal on addition of 10 µM free calicheamicin, corrected for background” value in test [5] was roughly 3.3 fold.

B9: Anti-Exatecan sdAb TF7 clone (VHH)
VHH: QVQLQESGGGLAQPGGSLRVSCATSGFTFSSNYYISWVRQAPGRGLEWVSAINTGDGSTYYAHSVKGRFTISRDNAKNTLYLQMNSLKPEDTALYYCARSSLEGRIEKPYDYWGQGTQVTVSS
notes: Llama single domain antibody; also called anti-camptothecin sdAb (TF7)
As to B9, in the test with exatecan conjugated BSA, the Kd came out at 10 nM.

As usually defined, the Kd is the concentration at which binding is half-saturated.
